Here are results for nine proteins from patent US20210238260.

The target of series [1] is plasma purified human AT-III (antithrombin III). The series is described as follows: AT-III/UFH inhibition K0.5, ratio to Catalyst Biosciences WT FIXa.
The target in series [2] is plasma purified human antithrombin III (AT-III), as complex with unfractionated heparin. The series is described as follows: ratio of K0.5 to Catalyst Biosciences WT FIXa, AT-III/UFH inhibition.

Chain of Factor X, P00742 (P00742 whole entry, looked up): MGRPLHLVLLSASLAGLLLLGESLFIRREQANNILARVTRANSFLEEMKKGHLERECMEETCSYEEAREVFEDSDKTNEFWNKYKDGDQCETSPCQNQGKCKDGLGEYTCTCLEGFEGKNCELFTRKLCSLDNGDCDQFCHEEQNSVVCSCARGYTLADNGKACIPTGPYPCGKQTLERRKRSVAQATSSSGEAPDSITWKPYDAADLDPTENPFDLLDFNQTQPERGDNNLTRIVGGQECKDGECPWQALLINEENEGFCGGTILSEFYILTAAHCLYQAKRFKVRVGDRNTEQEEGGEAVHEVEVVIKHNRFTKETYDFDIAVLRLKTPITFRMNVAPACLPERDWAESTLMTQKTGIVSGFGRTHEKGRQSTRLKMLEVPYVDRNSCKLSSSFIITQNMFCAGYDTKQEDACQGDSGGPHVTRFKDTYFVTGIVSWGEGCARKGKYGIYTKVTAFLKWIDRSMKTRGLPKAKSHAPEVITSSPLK
Chain of Factor X (FX), P00742 (P00742 whole entry, looked up): as above

B1: FIXa-I251S/R318Y/R338E/E410N (protein)
chain 1: YNSGKLEEFVQGNLERECMEEKCSFEEAREVFENTERTTEFWKQYVDGDQCESNPCLNGGSCKDDINSYECWCPFGFEGKNCELDVTCNIKNGRCEQFCKNSADNKVVCSCTEGYRLAENQKSCEPAVPFPCGRVSVSQTSKLTR
chain 2: VVGGEDAKPGQFPWQVVLNGKVDAFCGGSIVNEKWIVTAAHCVETGVKITVVAGEHNIEETEHTEQKRNVSRIIPHHNYNAAINKYNHDIALLELDEPLVLNSYVTPICIADKEYTNIFLKFGSGYVSGWGRVFHKGYSALVLQYLRVPLVDRATCLESTKFTIYNNMFCAGFHEGGRDSCQGDSGGPHVTEVEGTSFLTGIISWGEECAMKGKYGIYTKVSRYVNWIKNKTKLT
As a reminder, the kcat is the maximal rate divided by the concentration of active sites. By kcat/KM is commonly meant the turnover number divided by the Michaelis constant. For orientation: KM means the substrate concentration at which the rate is half of its maximum. B1: in the series with Factor X (FX), P00742, the “% of WT kcat/KM” value worked out at 849%, the kcat amounted to 6.2 s⁻¹ and the kcat/KM was 3.9e+08 M⁻¹ s⁻¹. In the series with Factor X, P00742, the “% of WT kcat/KM” value is on record as 851%, the KM is 0.0162 µM and the kcat/KM worked out at 3.8e+08 M⁻¹ s⁻¹. Also, the K0.5-mut/K0.5-wt in series [1] turned out to be 303. In addition, the K0.5-mut/K0.5-wt in series [2] was 303.

B2: FIXa-R318Y/R338E/T412A (protein)
chain 1: YNSGKLEEFVQGNLERECMEEKCSFEEAREVFENTERTTEFWKQYVDGDQCESNPCLNGGSCKDDINSYECWCPFGFEGKNCELDVTCNIKNGRCEQFCKNSADNKVVCSCTEGYRLAENQKSCEPAVPFPCGRVSVSQTSKLTR
chain 2: VVGGEDAKPGQFPWQVVLNGKVDAFCGGSIVNEKWIVTAAHCVETGVKITVVAGEHNIEETEHTEQKRNVIRIIPHHNYNAAINKYNHDIALLELDEPLVLNSYVTPICIADKEYTNIFLKFGSGYVSGWGRVFHKGYSALVLQYLRVPLVDRATCLESTKFTIYNNMFCAGFHEGGRDSCQGDSGGPHVTEVEGTSFLTGIISWGEECAMKGKYGIYTKVSRYVNWIKEKAKLT
With B2, in the series with Factor X (FX), P00742, the KM was found to be 0.0235 µM and the kcat of FX activation by FIXa (Xase complex with FVIIIa, PC/PS vesicles, Ca2+) turned out to be 7 s⁻¹. Further, in the series with Factor X, P00742, the “% of WT kcat/KM” value worked out at 661%, the kcat was 7 s⁻¹ and the kcat/KM was 3e+08 M⁻¹ s⁻¹. For the same protein, in series [1], the K0.5-mut/K0.5-wt worked out at 396. Moreover, the K0.5-mut/K0.5-wt in series [2] stood at 396.

B3: FIXa-K247N/N249S/R318Y/R338E/E410N (protein)
chain 1: YNSGKLEEFVQGNLERECMEEKCSFEEAREVFENTERTTEFWKQYVDGDQCESNPCLNGGSCKDDINSYECWCPFGFEGKNCELDVTCNIKNGRCEQFCKNSADNKVVCSCTEGYRLAENQKSCEPAVPFPCGRVSVSQTSKLTR
chain 2: VVGGEDAKPGQFPWQVVLNGKVDAFCGGSIVNEKWIVTAAHCVETGVKITVVAGEHNIEETEHTEQNRSVIRIIPHHNYNAAINKYNHDIALLELDEPLVLNSYVTPICIADKEYTNIFLKFGSGYVSGWGRVFHKGYSALVLQYLRVPLVDRATCLESTKFTIYNNMFCAGFHEGGRDSCQGDSGGPHVTEVEGTSFLTGIISWGEECAMKGKYGIYTKVSRYVNWIKNKTKLT
Consider B3, for which, in the series with Factor X (FX), P00742, the “% of WT kcat/KM” value was found to be 501%, the kcat amounted to 3.8 s⁻¹ and the kcat/KM is 2.3e+08 M⁻¹ s⁻¹. For the same protein, in the series with Factor X, P00742, the “% of WT kcat/KM” value is 516%, the KM stood at 0.0166 µM and the kcat/KM is 2.3e+08 M⁻¹ s⁻¹. Moreover, the K0.5-mut/K0.5-wt in series [1] turned out to be 78.3. The K0.5-mut/K0.5-wt in series [2] was 78.3.

B4: FIXa-D104N/K106S/Y155F/K228N/K247N/N249S (protein)
chain 1: YNSGKLEEFVQGNLERECMEEKCSFEEAREVFENTERTTEFWKQYVDGDQCESNPCLNGGSCKDDINSYECWCPFGFEGKNCELDVTCNIKNGRCEQFCKNSANNSVVCSCTEGYRLAENQKSCEPAVPFPCGRVSVSQTSKLTR
chain 2: VVGGEDAKPGQFPWQVVLNGKVDAFCGGSIVNEKWIVTAAHCVETGVNITVVAGEHNIEETEHTEQNRSVIRIIPHHNYNAAINKYNHDIALLELDEPLVLNSYVTPICIADKEYTNIFLKFGSGYVSGWGRVFHKGRSALVLQYLRVPLVDRATCLRSTKFTIYNNMFCAGFHEGGRDSCQGDSGGPHVTEVEGTSFLTGIISWGEECAMKGKYGIYTKVSRYVNWIKEKTKLT
B4: in the series with Factor X (FX), P00742, the “% of WT kcat/KM” value came to 137%; the kcat stood at 4.7 s⁻¹; the kcat of FX activation by FIXa (Xase complex with FVIIIa, PC/PS vesicles, Ca2+) worked out at 4.7 s⁻¹; the kcat/KM stood at 6.3e+07 M⁻¹ s⁻¹. In addition, in the series with Factor X, P00742, the “% of WT kcat/KM” value amounted to 142%, the KM stood at 0.0753 µM and the kcat/KM is 6.3e+07 M⁻¹ s⁻¹. For the same protein, the K0.5-mut/K0.5-wt in series [1] amounted to 1.6. The K0.5-mut/K0.5-wt in series [2] is 1.6.

B5: FIXa-Y155F/N260S/R318Y/R338E/R403E/E410N (protein)
chain 1: YNSGKLEEFVQGNLERECMEEKCSFEEAREVFENTERTTEFWKQYVDGDQCESNPCLNGGSCKDDINSYECWCPFGFEGKNCELDVTCNIKNGRCEQFCKNSADNKVVCSCTEGYRLAENQKSCEPAVPFPCGRVSVSQTSKLTR
chain 2: VVGGEDAKPGQFPWQVVLNGKVDAFCGGSIVNEKWIVTAAHCVETGVKITVVAGEHNIEETEHTEQKRNVIRIIPHHNYSAAINKYNHDIALLELDEPLVLNSYVTPICIADKEYTNIFLKFGSGYVSGWGRVFHKGYSALVLQYLRVPLVDRATCLESTKFTIYNNMFCAGFHEGGRDSCQGDSGGPHVTEVEGTSFLTGIISWGEECAMKGKYGIYTKVSEYVNWIKNKTKLT
On to B5, for which, in the series with Factor X (FX), P00742, the KM was found to be 0.0839 µM and the kcat of FX activation by FIXa (Xase complex with FVIIIa, PC/PS vesicles, Ca2+) came to 5.8 s⁻¹. Besides, in the series with Factor X, P00742, the “% of WT kcat/KM” value is recorded as 156%, the kcat was 5.8 s⁻¹ and the specificity constant (kcat/KM) was determined as 7e+07 M⁻¹ s⁻¹. In series [1], the K0.5-mut/K0.5-wt was 501. The K0.5-mut/K0.5-wt in series [2] turned out to be 501.

B6: FIXa-Y155F/K247N/N249S/R318Y/R338E/E410N (protein)
chain 1: YNSGKLEEFVQGNLERECMEEKCSFEEAREVFENTERTTEFWKQYVDGDQCESNPCLNGGSCKDDINSYECWCPFGFEGKNCELDVTCNIKNGRCEQFCKNSADNKVVCSCTEGYRLAENQKSCEPAVPFPCGRVSVSQTSKLTR
chain 2: VVGGEDAKPGQFPWQVVLNGKVDAFCGGSIVNEKWIVTAAHCVETGVKITVVAGEHNIEETEHTEQNRSVIRIIPHHNYNAAINKYNHDIALLELDEPLVLNSYVTPICIADKEYTNIFLKFGSGYVSGWGRVFHKGYSALVLQYLRVPLVDRATCLESTKFTIYNNMFCAGFHEGGRDSCQGDSGGPHVTEVEGTSFLTGIISWGEECAMKGKYGIYTKVSRYVNWIKNKTKLT
Consider B6, for which, in the series with Factor X (FX), P00742, the “% of WT kcat/KM” value was determined as 717%, the kcat is 4.3 s⁻¹ and the kcat/KM was 3.3e+08 M⁻¹ s⁻¹. Also, in the series with Factor X, P00742, the “% of WT kcat/KM” value is 674%, the KM was determined as 0.0153 µM and the kcat/KM is 3e+08 M⁻¹ s⁻¹. In addition, in series [1], the K0.5-mut/K0.5-wt was 200. Moreover, in series [2], the K0.5-mut/K0.5-wt was found to be 200.

B7: FIXa-A103N/N105S/K247N/N249S/R318Y/R338E/R403E/E410N (protein)
chain 1: YNSGKLEEFVQGNLERECMEEKCSFEEAREVFENTERTTEFWKQYVDGDQCESNPCLNGGSCKDDINSYECWCPFGFEGKNCELDVTCNIKNGRCEQFCKNSNDSKVVCSCTEGYRLAENQKSCEPAVPFPCGRVSVSQTSKLTR
chain 2: VVGGEDAKPGQFPWQVVLNGKVDAFCGGSIVNEKWIVTAAHCVETGVKITVVAGEHNIEETEHTEQNRSVIRIIPHHNYNAAINKYNHDIALLELDEPLVLNSYVTPICIADKEYTNIFLKFGSGYVSGWGRVFHKGYSALVLQYLRVPLVDRATCLESTKFTIYNNMFCAGFHEGGRDSCQGDSGGPHVTEVEGTSFLTGIISWGEECAMKGKYGIYTKVSEYVNWIKNKTKLT
Regarding B7, in the series with Factor X (FX), P00742, the “% of WT kcat/KM” value worked out at 324%, the kcat was 4.1 s⁻¹ and the kcat/KM was found to be 1.5e+08 M⁻¹ s⁻¹. Moreover, in the series with Factor X, P00742, the “% of WT kcat/KM” value came to 232%, the KM stood at 0.0397 µM and the kcat/KM was determined as 1e+08 M⁻¹ s⁻¹. Moreover, in series [1], the K0.5-mut/K0.5-wt amounted to 129. The K0.5-mut/K0.5-wt in series [2] is 129.

B8: FIXa-K247N/N249S/R318Y/R338E/R403E/E410N (protein)
chain 1: YNSGKLEEFVQGNLERECMEEKCSFEEAREVFENTERTTEFWKQYVDGDQCESNPCLNGGSCKDDINSYECWCPFGFEGKNCELDVTCNIKNGRCEQFCKNSADNKVVCSCTEGYRLAENQKSCEPAVPFPCGRVSVSQTSKLTR
chain 2: VVGGEDAKPGQFPWQVVLNGKVDAFCGGSIVNEKWIVTAAHCVETGVKITVVAGEHNIEETEHTEQNRSVIRIIPHHNYNAAINKYNHDIALLELDEPLVLNSYVTPICIADKEYTNIFLKFGSGYVSGWGRVFHKGYSALVLQYLRVPLVDRATCLESTKFTIYNNMFCAGFHEGGRDSCQGDSGGPHVTEVEGTSFLTGIISWGEECAMKGKYGIYTKVSEYVNWIKNKTKLT
Consider B8, for which, in the series with Factor X (FX), P00742, the “% of WT kcat/KM” value is given as 331%, the kcat was determined as 5.8 s⁻¹ and the kcat/KM is 1.5e+08 M⁻¹ s⁻¹. Further, in the series with Factor X, P00742, the “% of WT kcat/KM” value is recorded as 341%, the KM was determined as 0.0392 µM and the kcat/KM amounted to 1.5e+08 M⁻¹ s⁻¹. Moreover, the K0.5-mut/K0.5-wt in series [1] is 418. In addition, the K0.5-mut/K0.5-wt in series [2] turned out to be 418.

B9: FIXa-Y155F/K228N/K247N/N249S (protein)
chain 1: YNSGKLEEFVQGNLERECMEEKCSFEEAREVFENTERTTEFWKQYVDGDQCESNPCLNGGSCKDDINSYECWCPFGFEGKNCELDVTCNIKNGRCEQFCKNSADNKVVCSCTEGYRLAENQKSCEPAVPFPCGRVSVSQTSKLTR
chain 2: VVGGEDAKPGQFPWQVVLNGKVDAFCGGSIVNEKWIVTAAHCVETGVNITVVAGEHNIEETEHTEQNRSVIRIIPHHNYNAAINKYNHDIALLELDEPLVLNSYVTPICIADKEYTNIFLKFGSGYVSGWGRVFHKGRSALVLQYLRVPLVDRATCLRSTKFTIYNNMFCAGFHEGGRDSCQGDSGGPHVTEVEGTSFLTGIISWGEECAMKGKYGIYTKVSRYVNWIKEKTKLT
Regarding B9, in the series with Factor X (FX), P00742, the KM came to 0.0792 µM and the kcat of FX activation by FIXa (Xase complex with FVIIIa, PC/PS vesicles, Ca2+) was found to be 4.3 s⁻¹. Also, in the series with Factor X, P00742, the “% of WT kcat/KM” value is 118%, the kcat turned out to be 4.3 s⁻¹ and the kcat/KM was 5.3e+07 M⁻¹ s⁻¹. In addition, in series [1], the K0.5-mut/K0.5-wt worked out at 1.4. Moreover, the K0.5-mut/K0.5-wt in series [2] was determined as 1.4.
